Results taken from paper PMC9365671, “Synergistic autoinhibition and activation mechanisms control kinesin-1 motor activity” (Cell reports, 2022).

T1: KIF5B-Δhinge (Δ505-610)-mScarlet-StrepII (human, UniProt P33176 1-963, Δ505-610)
T1 construct: KIF5B, human, full length with aa 505-610 deleted (aa 1-504 joined to aa 611-963); also called delta-hinge mutant; delta-hinge KHC mutant; source: Sf9 (baculovirus), purified (Streptactin XT, SEC; the fractions that eluted like the wild type were used); not shown: mScarlet, C-terminal, kept
T1 sequence (looked up): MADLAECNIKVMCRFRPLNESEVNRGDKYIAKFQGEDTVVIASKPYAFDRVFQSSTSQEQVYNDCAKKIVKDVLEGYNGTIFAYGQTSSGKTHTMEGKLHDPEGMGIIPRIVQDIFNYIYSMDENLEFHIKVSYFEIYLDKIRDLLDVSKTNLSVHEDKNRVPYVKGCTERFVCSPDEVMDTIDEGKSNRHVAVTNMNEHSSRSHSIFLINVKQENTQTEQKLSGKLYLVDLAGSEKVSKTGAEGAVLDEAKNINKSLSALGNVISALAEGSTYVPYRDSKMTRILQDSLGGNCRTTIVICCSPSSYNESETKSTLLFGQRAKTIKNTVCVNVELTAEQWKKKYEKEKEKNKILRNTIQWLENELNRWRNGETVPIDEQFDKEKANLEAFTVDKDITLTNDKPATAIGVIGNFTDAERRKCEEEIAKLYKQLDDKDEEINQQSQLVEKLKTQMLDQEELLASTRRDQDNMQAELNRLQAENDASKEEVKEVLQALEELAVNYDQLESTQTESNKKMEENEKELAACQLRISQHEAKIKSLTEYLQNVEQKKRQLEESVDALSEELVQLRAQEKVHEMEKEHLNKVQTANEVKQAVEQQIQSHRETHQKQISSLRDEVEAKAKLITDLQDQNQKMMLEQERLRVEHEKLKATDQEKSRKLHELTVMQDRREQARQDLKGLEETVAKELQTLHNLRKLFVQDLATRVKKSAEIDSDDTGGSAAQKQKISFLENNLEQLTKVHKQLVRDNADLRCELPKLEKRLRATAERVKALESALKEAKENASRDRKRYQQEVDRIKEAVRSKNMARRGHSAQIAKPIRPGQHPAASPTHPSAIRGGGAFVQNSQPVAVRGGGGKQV


Key:
[1] = target: the molecule itself; assay: SEC-MALS; purified full-length KIF5 alone; BioSep SEC-s4000 column, GF150 buffer (25 mM HEPES-KOH, 150 mM KCl, 2 mM MgCl2)
[2] = target: T1, KIF5B-Δhinge (Δ505-610)-mScarlet-StrepII; assay: TIRF microscopy on microtubules; 40 nM KIF5B (wild type, mutants or K420B) on MTs with or without 200 nM recombinant KLC1, KLC1-CC or KLC1-TPR added in trans; ATP; relative fluorescence intensity on MTs; conditions: both partners purified

| Binder | stoichiometry N [1] | binding result [2] |
| --- | --- | --- |
| full-length human KIF5C-mScarlet-StrepII (natural protein, UniProt O60282 1-957, looked up, kinesin heavy chain KIF5C, human, cDNA BC110287, full length; 2x Prescission protease sites lie between KIF5C and mScarlet; also called KHC; source: Sf9 (baculovirus), purified (Streptactin XT, SEC); also co-expressed with KLC1 and co-purified; not shown: mScarlet, C-terminal, kept) MADPAECSIKVMCRFRPLNEAEILRGDKFIPKFKGDETVVIGQGKPYVFDRVLPPNTTQEQVYNACAKQIVKDVLEGYNGTIFAYGQTSSGKTHTMEGKLHDPQLMGIIPRIAHDIFDHIYSMDENLEFHIKVSYFEIYLDKIRDLLDVSKTNLAVHEDKNRVPYVKGCTERFVSSPEEVMDVIDEGKANRHVAVTNMNEHSSRSHSIFLINIKQENVETEKKLSGKLYLVDLAGSEKVSKTGAEGAVLDEAKNINKSLSALGNVISALAEGTKTHVPYRDSKMTRILQDSLGGNCRTTIVICCSPSVFNEAETKSTLMFGQRAKTIKNTVSVNLELTAEEWKKKYEKEKEKNKTLKNVIQHLEMELNRWRNGEAVPEDEQISAKDQKNLEPCDNTPIIDNIAPVVAGISTEEKEKYDEEISSLYRQLDDKDDEINQQSQLAEKLKQQMLDQDELLASTRRDYEKIQEELTRLQIENEAAKDEVKEVLQALEELAVNYDQKSQEVEDKTRANEQLTDELAQKTTTLTTTQRELSQLQELSNHQKKRATEILNLLLKDLGEIGGIIGTNDVKTLADVNGVIEEEFTMARLYISKMKSEVKSLVNRSKQLESAQMDSNRKMNASERELAACQLLISQHEAKIKSLTDYMQNMEQKRRQLEESQDSLSEELAKLRAQEKMHEVSFQDKEKEHLTRLQDAEEMKKALEQQMESHREAHQKQLSRLRDEIEEKQKIIDEIRDLNQKLQLEQEKLSSDYNKLKIEDQEREMKLEKLLLLNDKREQAREDLKGLEETVSRELQTLHNLRKLFVQDLTTRVKKSVELDNDDGGGSAAQKQKISFLENNLEQLTKVHKQLVRDNADLRCELPKLEKRLRATAERVKALESALKEAKENAMRDRKRYQQEVDRIKEAVRAKNMARRAHSAQIAKPIRPGHYPASSPTAVHAIRGGGGSSSNSTHYQK | 2 |  |
| 6xHis-2xStrepII-sfGFP-KLC1-CC (aa 1-200) (domain or fragment, human, UniProt Q07866 1-200, looked up, kinesin light chain 1, human, aa 1-200 (N-terminal coiled-coil part); also called N-terminal domain of the KLC; source: pET28a construct (E. coli BL21-CodonPlus (DE3)-RIPL), purified (Streptactin XT, SEC on Superdex 200)) MYDNMSTMVYIKEDKLEKLTQDEIISKTKQVIQGLEALKNEHNSILQSLLETLKCLKKDDESNLVEEKSNMIRKSLEMLELGLSEAQVMMALSNHLNAVESEKQKLRAQVRRLCQENQWLRDELANTQQKLQKSEQSVAQLEEEKKHLEFMNQLKKYDDDISPSEDKDTDSTKEPLDDLFPNDEDDPGQGIQQQHSSAAA |  | binds |
